pKd: −log10 of the molar value.

This note sets out measurements from doi:10.1101/2020.03.08.831909.

The target of experiment [1] is lit-stabilized OptoMB variant (group of the BLI measurements in the light). The experiment in a line: BLI. On the technique in general: BLI is a label-free optical method that tracks binding on a fibre tip over time.
For experiment [2], the target named is OptoMB_(C450V), light-insensitive, His-tagged, purified (Avena sativa) (UniProt O49003). Put plainly: BLI.

Sequence of YFP-SH2, purified (fusion of yellow fluorescent protein and SH2) (P00519 121-232): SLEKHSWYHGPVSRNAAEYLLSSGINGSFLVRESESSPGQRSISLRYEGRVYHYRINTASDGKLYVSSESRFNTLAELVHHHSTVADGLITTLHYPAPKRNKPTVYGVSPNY

For orientation: pKd means the Kd on a negative log10 scale, so that one unit is a factor of ten. The low end stands for a high Kd, the high end for a low Kd. In experiment [1], “YFP-SH2, purified (fusion of yellow fluorescent protein and SH2) (from UniProt P00519 121-232) (domain or fragment)” showed a pKd of 4.95; a fold change of kon, dark against light below 46 fold; a fold increase of koff, light against dark below 10 fold. The pKd in experiment [2] is 7.15.
